Experimental data reported in paper PMC10009750, “Development of Selective ADAMTS-5 Peptide Substrates to Monitor Proteinase Activity” (Journal of Medicinal Chemistry, 2023).
Values joined by “and” are separate entries in the source; they are usually repeats but may differ in a detail not shown here. Equal entries are not always repeated. Non-standard residues stand in square brackets, D forms with d. No end group written: not given here. Tyr(3-NO2) = N[C@@H](Cc1ccc(O)c([N+](=O)[O-])c1)C(=O)O; 2Abz = Nc1ccccc1C(=O)O

Legend:
[1] = biological target: T1, TS5-5 (ADAMTS-5) (Homo sapiens, UniProt Q9UNA0); experiment: Determination of kinetic parameters (kcat and Km) for substrate cleavage by TS5-5, inner-filter corrected; type: biochemical
T1 construct: ADAMTS-5 (i.e. TS5-5, residues 264–555); FLAG; made in house; host or cells: HEK293 cells (previously transfected stocks)
T1 sequence (Q9UNA0 264-555): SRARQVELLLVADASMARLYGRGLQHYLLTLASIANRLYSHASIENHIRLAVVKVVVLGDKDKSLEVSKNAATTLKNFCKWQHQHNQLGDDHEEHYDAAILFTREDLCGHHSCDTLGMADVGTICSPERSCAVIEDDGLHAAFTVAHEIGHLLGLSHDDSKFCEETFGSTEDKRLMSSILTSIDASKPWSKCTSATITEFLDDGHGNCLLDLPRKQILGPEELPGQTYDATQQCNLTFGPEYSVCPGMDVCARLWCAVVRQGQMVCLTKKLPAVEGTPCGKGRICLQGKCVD
Experimental: A solution of Abz-TESE↓SRGAIY-Dpa-KK-NH2/3/26 (5 mM) or 19/23 (1 mM) in DMSO underwent a 2-fold serial dilution with freshly prepared TNC buffer containing 0.005% (v/v) Brij-35. This gave initial concentrations in the following range: 222.22 to 0.87 μM (Abz-TESE↓SRGAIY-Dpa-KK-NH2/3/23/26) and 177.78 to 1.39 μM (19). Eight substrate concentrations (180 μL) within these ranges (including outer numbers) were added to a 96-well black microplate in triplicate and incubated at 37 °C (20 min). TNC buffer with 0.005% (v/v) Brij-35 was added to substrate-only control wells in a single replicate (180 μL). TS5-5 proteinase was thawed from −80 or −20 °C, made up in TNC buffer with 0.005% (v/v) Brij-35 (300 nM) and added to substrate wells (20 μL). TNC buffer was added to substrate-only control wells (20 μL). Fluorescence intensity was measured at 37 °C for 1 h with readings every 20 s. The rate of substrate cleavage was determined at each substrate concentration and expressed as the mean ± SEM in μM s^–1. The subsequent data was fitted to the Michaelis–Menten eq 2: [drawing 2] 2 where v is the rate of the reaction, Vmax is the maximal rate of the reaction, Km is the Michaelis constant, and [S] is the substrate concentration. This equation enabled the Km value to be determined. The catalytic rate constant kcat was determined from eq 3: [drawing 3] 3 where [E] is the concentration of proteinase, and kcat and Vmax are as defined previously. These initial Km and kcat parameters were determined from n = 3–4 independent experiments with final values for these parameters reported after a correction for the inner-filter effect.
This was performed based on the protocol described in Liu et al.([40]) to correct for quenching of the released Abz fluorophore by uncleaved substrate. Two sets of initial substrate concentrations were prepared as described in the previous section. Both sets of substrate concentrations (180 μL) were added to a 96-well black microplate in triplicate. Two buffer-alone controls with TNC buffer containing 0.005% (v/v) Brij-35 (180 μL) were also added in triplicate. All solutions were incubated at 37 °C (20 min). Abz fluorophore (1 M) in DMSO was serially diluted to 1 mM in DMSO, before further dilution to 100 μM using TNC buffer containing 0.005% (v/v) Brij-35. TNC buffer containing 0.005% (v/v) Brij-35 (20 μL) was added to the first set of substrate concentrations as well as to the first buffer-alone control. Abz fluorophore (20 μL, 100 μM) was added to the second set of substrate concentrations as well as the second buffer-alone control. The end-point fluorescence intensity was measured at 37 °C using λex = 300 nm and λem = 430 nm. At each substrate concentration, […] to give the actual fluorescence of the Abz fluorophore (RFUAbz). These values were divided by RFUAbz at a substrate concentration of 0 μM to give the correction factor for each concentration. The rates for each substrate concentration described in the previous section were divided by their respective correction factors (Tables S6–S10) to deliver the inner-filter corrected kcat and Km values.

[2] = system: MMP-2ΔC (catalytic domain of MMP-2); experiment: Selectivity studies: cleavage of FRET peptide substrates by MMP-2ΔC; type: biochemical; details: substrate 20 μM; for preference (selectivity) for TS5-5 over MMP-2ΔC: ratio of cleavage rates
Experimental: All proteinase assays were performed at 37 °C in a SpectraMax M5 spectrophotometer (Molecular Devices, San Jose, USA) using a 96-well black microplate (Greiner bio-one, Stonehouse, UK) unless otherwise stated. […] N-TIMP-3 was purified as described previously[30] and CT-1746 was a gift from Dr. Yoshifumi Itoh (Kennedy Institute of Rheumatology, University of Oxford). All analyses were carried out using Prism 9 software (GraphPad, La Jolla, CA, USA).
Selectivity studies are described for Abz-TESE↓SRGAIY-Dpa-KK-NH2, the library parent peptide 3, and hit peptides 18–26. A solution of Abz-TESE↓SRGAIY-Dpa-KK-NH2 (22.22 μM) in freshly prepared TNC buffer with 0.005% (v/v) Brij-35 (90 μL) was added to a 96-well clear bottom microplate (Greiner bio-one, Stonehouse, UK) in triplicate. A substrate-only background control was also added in triplicate (90 μL). The resultant solutions were incubated at 37 °C (30 min). An ADAMTS or MMP proteinase was added to substrate wells (10 μL) to give a final proteinase concentration of either 50–90 nM (TS4-4), 25–200 nM (TS5-5), 5–10 nM (MMP-2ΔC), 30 nM (MMP-9ΔC), 92 nM (MMP-1), or 3 μM (MMP-3). TNC buffer with 0.005% (v/v) Brij-35 was added to substrate-only control wells (10 μL). The relative fluorescence intensity was measured at 37 °C for 1 h with readings every 20 s. Activity was read from underneath the microplate, which was covered with a low evaporation lid. […] For each ADAMTS and MMP proteinase, the assay was performed 2–4 times. […] Final rates were expressed as a percentage of substrate cleavage by TS5-5 (mean ± SEM) or in μM s^–1 μM^–1 of proteinase.

[3] = TS5-5, TNC buffer with 0.005% (v/v) Brij-35, 37 °C, corrected for inner filter effect, mean ± SEM from 3–4 independent experiments in triplicate
[4] = TS5-5, TNC buffer with 0.005% (v/v) Brij-35, 37 °C, corrected for inner filter effect, mean ± SEM from 3–4 independent experiments in triplicate, listed as current substrate
[5] = supplementary CSV copy of Table 3, TS5-5, 37 °C

Substance | Km [1, 3] | kcat [1, 3] | kcat/Km [1, 3] | kcat [1, 4] | kcat/Km [1, 4] | kcat [1, 5] | preference (selectivity) for TS5-5 over MMP-2ΔC [2] | cleavage by MMP-2ΔC as a fraction (percentage) of TS5-5 cleavage of the current substrate ([2]; TNC buffer with 0.005% (v/v) Brij-35, 37 °C, mean of 2–8 independent experiments in triplicate) | decrease in Km compared to the current substrate ([1]; TS5-5) | higher catalytic efficiency (kcat/Km) compared to the current substrate ([1]; TS5-5) | lower catalytic rate constant (kcat) compared to the current substrate ([1]; TS5-5)
Abz-TESE↓SRGAIY-Dpa-KK-NH2 [current, ortho-aminobenzoyl(Abz)-TESE↓SRGAIY-N-3-[2,4-dinitrophenyl]-L-2,3-diaminopropionyl(Dpa)-KK-NH2, reference compound] | 125 ± 5 µM | 3.61 ± 0.31 s⁻¹ | 29100 ± 3090 M⁻¹ s⁻¹ | 3.61 s⁻¹ | 29100 M⁻¹ s⁻¹ | 3.61 ± 0.31 s⁻¹ | ~0.7 fold | 138% | – | – | –
KY(NO2)SENESRGK(Abz)IYYKKG (K[Tyr(3-NO2)]SENESRGK(2Abz)IYYKKG) [Compound 26] | 76.9 ± 6.4 µM | 3.32 s⁻¹ and 3.32 ± 0.31 s⁻¹ | 44400 M⁻¹ s⁻¹ and 44400 ± 6690 M⁻¹ s⁻¹ | – | – | 3.32 ± 0.31 s⁻¹ | ~8 fold | – | ~2 fold | ~1.5 fold | –
KY(NO2)TESESRGK(Abz)IYYKKG (K[Tyr(3-NO2)]TESESRGK(Abz)IYYKKG) [Compound 3] | 29.5 ± 1.7 µM | 1.87 s⁻¹ and 1.87 ± 0.15 s⁻¹ | 63200 M⁻¹ s⁻¹ and 63200 ± 1840 M⁻¹ s⁻¹ | – | – | 1.87 ± 0.15 s⁻¹ | ~10 fold | – | ~4 fold | ~2 fold | ~2 fold
